Results reported in publication PMC5374420, “In Search of Small Molecule Inhibitors Targeting the Flexible CK2 Subunit Interface” (Pharmaceuticals, 2017).

Biological target: T1, CK2α of MCF-10A cells (human (endogenous in MCF-10A), UniProt P68400 1-391)
T1 construct: protein kinase CK2 catalytic subunit alpha, endogenous; also called free CK2α subunit; source: endogenous, MCF-10A cells and cell extracts (WT or CK2β-depleted)
Experiment: thermal shift assay in cell lysates; CK2β-depleted MCF-10A cell lysates (50 mM Tris-HCl pH 7.5, 150 mM NaCl, 2% glycerol) with 50 µM TAT or TAT-Pc 13, or PBS or CK2β, 30 min at room temperature; aliquots heated 3 min; CK2 activity of the supernatants
Conditions: one partner purified

T1 sequence (P68400 whole entry): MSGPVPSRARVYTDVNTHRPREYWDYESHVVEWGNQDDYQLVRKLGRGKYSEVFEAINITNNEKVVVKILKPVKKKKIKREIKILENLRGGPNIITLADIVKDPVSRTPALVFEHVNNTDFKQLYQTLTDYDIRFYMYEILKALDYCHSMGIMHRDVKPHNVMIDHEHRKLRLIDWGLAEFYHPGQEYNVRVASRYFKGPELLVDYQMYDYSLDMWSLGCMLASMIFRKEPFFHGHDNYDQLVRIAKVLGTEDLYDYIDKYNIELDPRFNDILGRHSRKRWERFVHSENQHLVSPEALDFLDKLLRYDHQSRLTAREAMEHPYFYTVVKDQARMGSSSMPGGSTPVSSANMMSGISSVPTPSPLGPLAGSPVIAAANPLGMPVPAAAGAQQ

B1: recombinant CK2β (natural protein)
chain: not shown
notes: protein kinase CK2 regulatory subunit beta; also called protein kinase CK2 regulatory β subunit
shift of the melting curve: 3 °C
